The values below come from US20220003777A1 (Stanford University, published 2022).

In this assay the target is T1, Secreted Protease of C1 Esterase Inhibitor (StcE), recombinant N-terminal His-tagged (Escherichia coli O157:H7, UniProt O82882 36-898).
T1 construct: also called mucinase
T1 sequence: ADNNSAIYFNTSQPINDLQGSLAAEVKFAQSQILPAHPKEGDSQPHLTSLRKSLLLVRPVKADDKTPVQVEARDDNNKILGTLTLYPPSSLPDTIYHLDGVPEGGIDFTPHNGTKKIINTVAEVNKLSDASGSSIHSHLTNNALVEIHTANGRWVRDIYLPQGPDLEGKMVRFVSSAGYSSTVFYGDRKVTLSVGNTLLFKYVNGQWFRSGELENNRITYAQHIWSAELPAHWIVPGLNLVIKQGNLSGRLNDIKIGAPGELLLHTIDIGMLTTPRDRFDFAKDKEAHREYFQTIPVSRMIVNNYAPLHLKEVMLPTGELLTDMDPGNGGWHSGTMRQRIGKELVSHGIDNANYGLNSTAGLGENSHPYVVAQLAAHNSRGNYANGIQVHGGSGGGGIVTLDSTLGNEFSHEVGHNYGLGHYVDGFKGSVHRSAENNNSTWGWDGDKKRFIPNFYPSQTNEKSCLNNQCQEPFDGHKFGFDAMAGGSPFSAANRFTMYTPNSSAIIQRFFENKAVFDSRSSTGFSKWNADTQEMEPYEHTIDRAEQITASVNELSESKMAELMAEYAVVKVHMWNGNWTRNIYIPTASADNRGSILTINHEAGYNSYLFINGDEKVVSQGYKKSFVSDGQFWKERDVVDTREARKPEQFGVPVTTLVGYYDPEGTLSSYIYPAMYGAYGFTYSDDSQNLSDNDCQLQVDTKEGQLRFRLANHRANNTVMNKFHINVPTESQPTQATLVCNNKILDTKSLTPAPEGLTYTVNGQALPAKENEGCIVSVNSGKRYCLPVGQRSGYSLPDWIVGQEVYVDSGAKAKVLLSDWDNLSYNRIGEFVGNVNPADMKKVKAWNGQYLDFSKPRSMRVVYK
Nature of the assay: pull-down with StcE conjugated to POROS AL beads, EDTA present, silver stain.

B1: C1 esterase inhibitor, human plasma-derived (other)
chain: NPNATSSSSQDPESLQDRGEGKVATTVISKMLFVEPILEVSSLPTTNSTTNSATKITANTTDEPTTQPTTEPTTQPTIQPTQPTTQLPTDSPTQPTTGSFCPGPVTLCSDLESHSTEAVLGDALVDFSLKLYHAFSAMKKVETNMAFSPFSIASLLTQVLLGAGENTKTNLESILSYPKDFTCVHQALKGFTTKGVTSVSQIFHSPDLAIRDTFVNASRTLYSSSPRVLSNNSDANLELINTWVAKNTNNKISRLLDSLPSDTRLVLLNAIYLSAKWKTTFDPKKTRMEPFHFKNSVIKVPMMNSKKYPVAHFIDQTLKAKVGQLQLSHNLSLVILVPQNLKHRLEDMEQALSPSVFKAIMEKLEMSKFQPTLLTLPRIKVTTSQDMLSIMEKLEFFDFSYDLNLCGLTEDPDLQVSAMQHQTVLELTETGVEAAAASAISVARTLLVFEVQQPFLFVLWDQQHKFPVFMGRVYDPRA
notes: Printed as C11NH throughout (OCR of C1INH); Native glycosylated protein; also called C11NH; C1-INH
Take B1: the binding result is “binds”.
